Test [1] has as its target T1, human podocalyxin expressed on cancer cells (human, UniProt O00592 23-558).
T1 construct: Podocalyxin on cancer cells; also called hPODXL; PODXL
T1 sequence: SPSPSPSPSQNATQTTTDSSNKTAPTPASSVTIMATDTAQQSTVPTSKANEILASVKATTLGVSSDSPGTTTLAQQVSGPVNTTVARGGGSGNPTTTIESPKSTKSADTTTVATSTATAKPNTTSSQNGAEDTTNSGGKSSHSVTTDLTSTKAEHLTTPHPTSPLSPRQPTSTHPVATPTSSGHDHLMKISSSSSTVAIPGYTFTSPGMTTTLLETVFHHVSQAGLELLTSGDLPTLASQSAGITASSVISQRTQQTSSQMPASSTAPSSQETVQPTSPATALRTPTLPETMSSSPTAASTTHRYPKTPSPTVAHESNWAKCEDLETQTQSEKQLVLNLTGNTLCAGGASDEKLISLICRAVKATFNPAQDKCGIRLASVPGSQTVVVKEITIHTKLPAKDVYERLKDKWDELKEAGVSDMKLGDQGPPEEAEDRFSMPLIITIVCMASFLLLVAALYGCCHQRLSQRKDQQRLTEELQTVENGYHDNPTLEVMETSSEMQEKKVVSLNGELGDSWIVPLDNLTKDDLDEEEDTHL
In words: flow cytometry on LN229/hPODXL, CHO culture supernatant. How it is done:
A CRISPR/Cas plasmid of a glycosyltransferase (FUT-8) that transfers a core fucose was introduced into CHO-s cells (product of Thermo Scientific) and CHO-s-fut8-knock out cells were established. pCAG-hIgG1hG2b/PcMab-6HVH (G418)/pCAG-hIgCK/PcMab-6LVL (zeocin) (each 2.5 μg) or pCAG-hIgG1hG2b/PcMab-47HVH (G418)/pCAG-hIgCK/PcMab-47LVL (zeocin) (each 2.5 μg) were mixed and transfected into 1×10⁵ CHO-s/fut8-knock out cells (corresponding to 1 well of a 6-well plate) by the method of Lipofectamin LTX. After 24 hours, selection of transfected cells was started on a medium containing 500 μg/mL of Zeocin and 1 mg/mL of G418. The reactivity of the culture supernatant of the selected cells with the LN229 cells having therein forcibly expressed podocalyxin (LN229/hPODXL) was confirmed by flow cytometry.

The target in test [2] is T1, human podocalyxin expressed on cancer …. Description: immunohistochemistry on breast cancer tissue array, 5 µg/mL. The method, then:
Various paraffin sections were deparaffined in xylene and ethanol solutions. The resulting sections were subjected to antigen activation in an autoclave by using a citrate buffer having pH 6.0 (product of Dako). Endogenous peroxidase was inactivated with 3% H₂O₂. After blocking with SuperBlock (product of Thermo Fisher) at room temperature for 10 minutes, the primary antibody was reacted at a concentration of from 5 to 10 μg/mL at room temperature for one hour. After amplification using a LSAB kit (product of Dako), LSAB2 (product of Dako), or Envision+ (product of Dako), color was developed using DAB (product of Dako).
Podocalyxin is known to be expressed highly in breast cancer. PcMab-6 and an anti-podocalyxin antibody (polyclonal antibody: product of R&D) were therefore reacted with a breast cancer tissue array (product of US Biomax) at a concentration of 5 μg/mL. […] Similarly, a difference in reactivity with breast cancer between PcMab-6 and PcMab-47 was investigated. […] It has therefore been confirmed that also in Immunohistochemistry, PcMab-6 is CasMab.

B1: mouse-human chimeric PcMab-47 antibody (chPcMab-47) (antibody)
heavy: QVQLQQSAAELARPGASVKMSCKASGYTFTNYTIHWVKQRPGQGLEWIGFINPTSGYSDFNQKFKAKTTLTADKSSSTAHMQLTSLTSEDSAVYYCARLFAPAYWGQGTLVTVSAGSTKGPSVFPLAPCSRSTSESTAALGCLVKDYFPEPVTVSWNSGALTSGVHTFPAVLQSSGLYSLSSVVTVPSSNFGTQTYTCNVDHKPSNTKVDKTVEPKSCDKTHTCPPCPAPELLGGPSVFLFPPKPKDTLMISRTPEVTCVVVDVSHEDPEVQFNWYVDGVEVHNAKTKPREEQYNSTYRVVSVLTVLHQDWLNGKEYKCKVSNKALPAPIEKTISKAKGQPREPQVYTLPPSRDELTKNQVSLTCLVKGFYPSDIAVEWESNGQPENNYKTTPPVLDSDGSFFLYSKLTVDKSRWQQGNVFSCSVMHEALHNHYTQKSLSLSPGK
light: QIVLTQSPAIMSASLGERVTMYCTASSSVSSSYLHWYQQKPGSSPKLWIYGTSNLASGVPARFSGSGSGTSYSLTISSMEAEDAATYYCHQYHRPPLTFGAGTKLELKRTSTVAAPSVFIFPPSDEQLKSGTASVVCLLNNFYPREAKVQWKVDNALQSGNSQESVTEQDSKDSTYSLSSTLTLSKADYEKHKVYACEVTHQGLSSPVTKSFNRGEC
notes: VH/VL of PcMab-47 with human IgG1 CH1-hinge-CH2-CH3 and human kappa CL, expressed in CHO cells; The entries may include the signal peptide; also called chPcMa47
Turning to B1, the binding result in test [1] was “binds”.

B2: PcMab-47 (antibody, mouse IgG1, kappa)
heavy: QVQLQQSAAELARPGASVKMSCKASGYTFTNYTIHWVKQRPGQGLEWIGFINPTSGYSDFNQKFKAKTTLTADKSSSTAHMQLTSLTSEDSAVYYCARLFAPAYWGQGTLVTVSAAKTTPPSVYPLAPGSAAQTNSMVTLGCLVKGYFPEPVTVTWNSGSLSSGVHTFPAVLQSDLYTLSSSVTVPSSTWPSETVTCNVAHPASSTKVDKKIVPRDCGCKPCICTVPEVSSVFIFPPKPKDVLTITLTPKVTCVVVDISKDDPEVQFSWFVDDVEVHTAQTQPREEQFNSTFRSVSELPIMHQDWLNGKEFKCRVNSAAFPAPIEKTISKTKGRPKAPQVYTIPPPKEQMAKDKVSLTCMITDFFPEDITVEWQWNGQPAENYKNTQPIMDTDGSYFVYSKLNVQKSNWEAGNTFTCSVLHEGLHNHHTEKSLSHSPGK
light: QIVLTQSPAIMSASLGERVTMYCTASSSVSSSYLHWYQQKPGSSPKLWIYGTSNLASGVPARFSGSGSGTSYSLTISSMEAEDAATYYCHQYHRPPLTFGAGTKLELKRADAAPTVSIFPPSSEQLTSGGASVVCFLNNFYPKDINVKWKIDGSERQNGVLNSWTDQDSKDSTYSMSSTLTLTKDEYERHNSYTCEATHKTSTSPIVKSFNRNEC
notes: Mouse monoclonal antibody; also called cancer-nonspecific anti-podocalyxin antibody
For the molecule B2, the binding result in test [2] is listed as “binds”.

These data come from US20180134786A1 (TOHOKU UNIVERSITY, published 2018).
